This is an account of results in US20240182536A1 (MURAL ONCOLOGY, published 2024).

What all share (experiment): cell-based or functional assay
Test [1] addresses T1, IL-18 receptor (IL-18Rα and IL-18Rβ) (UniProt Q13478 19-541; O95256 20-599, limits assumed).
T1 sequence (looked up) 1: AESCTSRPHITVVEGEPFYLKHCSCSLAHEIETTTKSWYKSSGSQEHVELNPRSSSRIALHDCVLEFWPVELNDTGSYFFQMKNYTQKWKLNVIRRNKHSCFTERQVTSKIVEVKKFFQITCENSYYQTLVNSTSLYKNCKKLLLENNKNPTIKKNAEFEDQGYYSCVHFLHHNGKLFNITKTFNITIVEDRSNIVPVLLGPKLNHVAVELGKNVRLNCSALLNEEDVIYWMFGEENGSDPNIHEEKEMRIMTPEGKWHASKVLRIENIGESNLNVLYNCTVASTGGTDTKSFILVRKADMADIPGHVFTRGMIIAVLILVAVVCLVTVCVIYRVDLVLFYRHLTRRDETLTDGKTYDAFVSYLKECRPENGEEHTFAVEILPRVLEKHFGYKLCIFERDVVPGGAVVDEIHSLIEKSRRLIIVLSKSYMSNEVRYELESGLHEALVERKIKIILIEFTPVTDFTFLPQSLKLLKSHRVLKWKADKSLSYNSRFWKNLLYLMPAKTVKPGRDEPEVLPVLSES
T1 sequence (looked up) 2: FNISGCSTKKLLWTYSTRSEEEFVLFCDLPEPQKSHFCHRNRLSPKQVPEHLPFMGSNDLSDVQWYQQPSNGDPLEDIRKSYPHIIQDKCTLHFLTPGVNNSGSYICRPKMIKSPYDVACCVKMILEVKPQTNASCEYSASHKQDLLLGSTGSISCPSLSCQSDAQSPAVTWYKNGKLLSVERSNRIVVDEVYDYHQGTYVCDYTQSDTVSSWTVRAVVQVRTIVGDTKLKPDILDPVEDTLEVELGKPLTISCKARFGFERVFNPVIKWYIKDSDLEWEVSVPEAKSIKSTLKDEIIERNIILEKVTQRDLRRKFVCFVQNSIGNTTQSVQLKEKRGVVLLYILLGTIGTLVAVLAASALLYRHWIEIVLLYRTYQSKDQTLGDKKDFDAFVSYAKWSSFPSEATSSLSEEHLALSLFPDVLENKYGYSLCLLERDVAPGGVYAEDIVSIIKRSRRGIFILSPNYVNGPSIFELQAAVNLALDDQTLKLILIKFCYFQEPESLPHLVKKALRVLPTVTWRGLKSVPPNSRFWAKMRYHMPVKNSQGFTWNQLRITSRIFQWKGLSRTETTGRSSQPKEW

In test [2] the target is T2, interleukin 18 binding protein (IL-18BP) (UniProt O95998 31-194).
T2 sequence (looked up): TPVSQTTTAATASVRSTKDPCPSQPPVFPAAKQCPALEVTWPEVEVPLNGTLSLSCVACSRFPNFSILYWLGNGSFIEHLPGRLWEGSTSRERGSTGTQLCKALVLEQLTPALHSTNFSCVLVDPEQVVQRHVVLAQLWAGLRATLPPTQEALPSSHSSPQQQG

For test [3], the target named is T3, human IL-18 binding protein (IL-18BP) (human, UniProt O95998 31-194).
T3 sequence (looked up): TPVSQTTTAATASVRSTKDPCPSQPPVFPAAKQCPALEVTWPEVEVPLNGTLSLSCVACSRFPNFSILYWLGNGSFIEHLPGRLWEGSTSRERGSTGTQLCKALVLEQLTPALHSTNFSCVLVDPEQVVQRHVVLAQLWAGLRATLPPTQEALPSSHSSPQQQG

In test [4] the target is T4, IL-18 receptors on HEK-Blue IL-18 reporter cells (InvivoGen) (UniProt Q13478 19-541; O95256 20-599).
T4 sequence (looked up) 1: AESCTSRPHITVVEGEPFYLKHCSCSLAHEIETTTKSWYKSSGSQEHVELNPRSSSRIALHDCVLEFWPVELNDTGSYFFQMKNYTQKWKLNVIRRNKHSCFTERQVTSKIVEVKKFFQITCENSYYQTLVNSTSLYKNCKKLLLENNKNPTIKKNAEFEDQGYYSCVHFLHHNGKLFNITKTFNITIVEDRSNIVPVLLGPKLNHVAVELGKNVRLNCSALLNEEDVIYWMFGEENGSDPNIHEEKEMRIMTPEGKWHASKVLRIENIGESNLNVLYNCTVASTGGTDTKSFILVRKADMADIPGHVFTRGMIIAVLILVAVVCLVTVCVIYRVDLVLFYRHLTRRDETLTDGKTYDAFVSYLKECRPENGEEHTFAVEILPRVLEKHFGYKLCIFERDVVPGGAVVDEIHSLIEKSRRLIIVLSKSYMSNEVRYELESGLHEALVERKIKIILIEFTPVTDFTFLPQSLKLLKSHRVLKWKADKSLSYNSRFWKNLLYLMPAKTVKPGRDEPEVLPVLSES
T4 sequence (looked up) 2: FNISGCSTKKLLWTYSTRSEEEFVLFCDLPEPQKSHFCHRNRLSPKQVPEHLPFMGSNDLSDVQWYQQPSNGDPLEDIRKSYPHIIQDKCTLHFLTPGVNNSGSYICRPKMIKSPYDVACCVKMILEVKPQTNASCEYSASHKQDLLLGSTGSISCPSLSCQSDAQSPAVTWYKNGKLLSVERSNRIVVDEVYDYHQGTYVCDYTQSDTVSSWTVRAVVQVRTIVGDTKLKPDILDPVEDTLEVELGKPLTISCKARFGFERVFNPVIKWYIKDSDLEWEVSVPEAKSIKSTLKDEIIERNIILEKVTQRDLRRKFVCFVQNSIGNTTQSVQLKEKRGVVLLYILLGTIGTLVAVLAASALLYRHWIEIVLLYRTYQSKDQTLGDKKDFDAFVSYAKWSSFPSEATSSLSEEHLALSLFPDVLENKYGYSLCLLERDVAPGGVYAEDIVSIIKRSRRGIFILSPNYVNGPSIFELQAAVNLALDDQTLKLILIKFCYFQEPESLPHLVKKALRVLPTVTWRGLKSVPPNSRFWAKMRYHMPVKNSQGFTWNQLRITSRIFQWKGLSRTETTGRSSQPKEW

Test [5] addresses T1, IL-18 receptor (IL-18Rα and IL-18Rβ). The source holds these as a separate data set.

B1: IL-18 variant G3Q, E6S, S55V, T63A, N91T (ligand)
chain: YFQKLSSKLSVIRNLNDQVLFIDQGNRPLFEDMTDSDMRDNAPRTIFIISMYKDVQPRGMAVAISVKSEKISTLSSENKIISFKEMNPPDTIKDTKSDIIFFQRSVPGHDNKMQFESSSYEGYFLASEKERDLFKLILKKEDELGDRSIMFTVQNED
Consider B1, for which the “EC50 (pM) - BP, HEK-blue re-screening” value in test [1] is 0.2 pM. Besides, in test [2], the “EC50 (pM) + 100 nM BP, HEK-blue re-screening” value (“EC50 (pM) + 100 nM BP” for short) stood at 35.9 pM and the “Ratio (HEK-blue EC50, + 100 nM BP against - BP)” value (“Ratio” below) amounted to 180.

B2: IL-18 variant G3Q, E6K, D54S, S55P, T63S, N91S, R104Q (ligand)
chain: YFQKLKSKLSVIRNLNDQVLFIDQGNRPLFEDMTDSDMRDNAPRTIFIISMYKSPQPRGMAVSISVKSEKISTLSSENKIISFKEMNPPDSIKDTKSDIIFFQQSVPGHDNKMQFESSSYEGYFLASEKERDLFKLILKKEDELGDRSIMFTVQNED
On to B2, for which, in test [1], the “EC50 (pM) - BP, HEK-blue re-screening” value is 0.27 pM. Besides, in test [2], the “EC50 (pM) + 100 nM BP” value amounted to 7.45 pM and the “Ratio” value came to 27.6.

B3: IL-18 variant G3I, E6Q, N91M, R104Y (ligand)
chain: YFIKLQSKLSVIRNLNDQVLFIDQGNRPLFEDMTDSDMRDNAPRTIFIISMYKDSQPRGMAVTISVKSEKISTLSSENKIISFKEMNPPDMIKDTKSDIIFFQYSVPGHDNKMQFESSSYEGYFLASEKERDLFKLILKKEDELGDRSIMFTVQNED
B3: in test [1], the “EC50 (pM) - BP, HEK-blue re-screening” value worked out at 0.07 pM. In test [2], the “EC50 (pM) + 100 nM BP” value turned out to be 3.77 pM and the “Ratio” value amounted to 53.9.

B4: IL-18 variant M60K, D157E (ligand)
chain: YFGKLESKLSVIRNLNDQVLFIDQGNRPLFEDMTDSDMRDNAPRTIFIISMYKDSQPRGKAVTISVKSEKISTLSSENKIISFKEMNPPDNIKDTKSDIIFFQRSVPGHDNKMQFESSSYEGYFLASEKERDLFKLILKKEDELGDRSIMFTVQNEE
Take B4: in test [3], the “Fold Change (BP/NO BP), 50 nM BP” value came out at 1.25 fold; the “Fold Change (BP/NO BP), 300 nM BP” value is 9.04 fold; the “HEK-Blue EC50 pM, +50 nM BP” value was 1.62 pM; the “HEK-blue EC50 (pM) + 300 nM BP” value came out at 15.1 pM. In test [4], the “HEK-Blue EC50 pM, NO BP (50 nM BP run)” value is 1.3 pM and the “HEK-Blue EC50 pM, NO BP (300 nM BP run)” value is 1.67 pM.

B5: hIL18 (G3V, K53S, M60K) - KiH (Fc fusion)
chain: YFVKLESKLSVIRNLNDQVLFIDQGNRPLFEDMTDSDMRDNAPRTIFIISMYSDSQPRGKAVTISVKSEKISTLSSENKIISFKEMNPPDNIKDTKSDIIFFQRSVPGHDNKMQFESSSYEGYFLASEKERDLFKLILKKEDELGDRSIMFTVQNED
For B5, in test [5], the “EC50 (pM), PBMC IFN gamma assay, average” value turned out to be 576 pM; the “EC50 (pM), PBMC IFN gamma assay, run 1” value was 589 pM; the “EC50 (pM), PBMC IFN gamma assay, run 2” value was determined as 535 pM; the “EC50 (pM), PBMC IFN gamma assay, run 3” value worked out at 603 pM. Besides, in test [5], the “PBMC IFN gamma EC50 relative to WT-IL18, average” value was 3.75; the “PBMC IFN gamma EC50 relative to WT-IL18, run 1” value worked out at 2.45; the “PBMC IFN gamma EC50 relative to WT-IL18, run 2” value amounted to 5.08; the “PBMC IFN gamma EC50 relative to WT-IL18, run 3” value was found to be 3.73.

B6: IL-18 variant G3S, E6G, D54V, S55K, T63S, N91Y, R104T (ligand)
chain: YFSKLGSKLSVIRNLNDQVLFIDQGNRPLFEDMTDSDMRDNAPRTIFIISMYKVKQPRGMAVSISVKSEKISTLSSENKIISFKEMNPPDYIKDTKSDIIFFQTSVPGHDNKMQFESSSYEGYFLASEKERDLFKLILKKEDELGDRSIMFTVQNED
Turning to B6, the “EC50 (pM) - BP, HEK-blue re-screening” value in test [1] amounted to 0.21 pM. Moreover, in test [2], the “EC50 (pM) + 100 nM BP” value stood at 4.87 pM and the “Ratio” value came out at 23.2.

B7: IL-18 variant E6G, D54A, S55K, T63S, N91K, Q114R (ligand)
chain: YFGKLGSKLSVIRNLNDQVLFIDQGNRPLFEDMTDSDMRDNAPRTIFIISMYKAKQPRGMAVSISVKSEKISTLSSENKIISFKEMNPPDKIKDTKSDIIFFQRSVPGHDNKMRFESSSYEGYFLASEKERDLFKLILKKEDELGDRSIMFTVQNED
On to B7, for which, in test [1], the “EC50 (pM) - BP, HEK-blue re-screening” value came to 0.1 pM. In test [2], the “EC50 (pM) + 100 nM BP” value turned out to be 2.17 pM and the “Ratio” value came out at 21.7.
